Values belong to the molecule of their own block, whether it stands above or below them.
Assays:
3×MBT domain of L3MBTL1 = test: Triple SILAC pull-down, 3xMBT/3xMBTD355N ratio (cytoplasmic, nuclear and chromatin fractions of 293T cells); assay type: binding, human; conditions: SILAC ratio 3xMBT vs 3xMBTD355N pull-down, 293T cells, all values in log base 2; for 3xMBT/D355N UNC Heavy: experiment with UNC0638 in heavy SILAC media; for 3xMBT/D355N UNC Light: experiment with UNC0638 in light SILAC media;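 as to all read-outs here: proteins quantified with MaxQuant, requiring at least two unique peptides and quantification in both label directions, normalized to the mean of proteins from a digested loading control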
G9a and GLP = biological target: T1, G9a and GLP (Homo sapiens, UniProt Q96KQ7+Q9H9B1); test: Triple SILAC pull-down after UNC0638 treatment of 293T cells, DMSO/UNC0638 ratio of protein captured by 3×MBT; assay type: cell-based; set-up: cells were treated for 24 hours with UNC0638 at 2.5 μM or DMSO vehicle control; endogenous in cells; host or cells: HEK 293T; conditions: all values in log base 2; for Relative to UNC0638 UNC Heavy / Relative to UNC0638 UNC Light: SILAC ratio DMSO relative to UNC0638, pull-down with 3xMBT; for Relative to UNC0638 UNC Heavy: UNC0638 in heavy SILAC media; for Relative to UNC0638 UNC Light: UNC0638 in light SILAC media; for Relative to UNC0638 Average: average of UNC Light and UNC Heavy experiments;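 as to all read-outs here: mass spectrometry (Q-Exactive) SILAC quantitation, DMSO/UNC0638 ratio computed after subtracting 3×MBTD355N mutant pull-down background, only proteins with at least twofold 3×MBT over mutant signal considered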
T1 sequence (Q96KQ7 2-1210 limits assumed): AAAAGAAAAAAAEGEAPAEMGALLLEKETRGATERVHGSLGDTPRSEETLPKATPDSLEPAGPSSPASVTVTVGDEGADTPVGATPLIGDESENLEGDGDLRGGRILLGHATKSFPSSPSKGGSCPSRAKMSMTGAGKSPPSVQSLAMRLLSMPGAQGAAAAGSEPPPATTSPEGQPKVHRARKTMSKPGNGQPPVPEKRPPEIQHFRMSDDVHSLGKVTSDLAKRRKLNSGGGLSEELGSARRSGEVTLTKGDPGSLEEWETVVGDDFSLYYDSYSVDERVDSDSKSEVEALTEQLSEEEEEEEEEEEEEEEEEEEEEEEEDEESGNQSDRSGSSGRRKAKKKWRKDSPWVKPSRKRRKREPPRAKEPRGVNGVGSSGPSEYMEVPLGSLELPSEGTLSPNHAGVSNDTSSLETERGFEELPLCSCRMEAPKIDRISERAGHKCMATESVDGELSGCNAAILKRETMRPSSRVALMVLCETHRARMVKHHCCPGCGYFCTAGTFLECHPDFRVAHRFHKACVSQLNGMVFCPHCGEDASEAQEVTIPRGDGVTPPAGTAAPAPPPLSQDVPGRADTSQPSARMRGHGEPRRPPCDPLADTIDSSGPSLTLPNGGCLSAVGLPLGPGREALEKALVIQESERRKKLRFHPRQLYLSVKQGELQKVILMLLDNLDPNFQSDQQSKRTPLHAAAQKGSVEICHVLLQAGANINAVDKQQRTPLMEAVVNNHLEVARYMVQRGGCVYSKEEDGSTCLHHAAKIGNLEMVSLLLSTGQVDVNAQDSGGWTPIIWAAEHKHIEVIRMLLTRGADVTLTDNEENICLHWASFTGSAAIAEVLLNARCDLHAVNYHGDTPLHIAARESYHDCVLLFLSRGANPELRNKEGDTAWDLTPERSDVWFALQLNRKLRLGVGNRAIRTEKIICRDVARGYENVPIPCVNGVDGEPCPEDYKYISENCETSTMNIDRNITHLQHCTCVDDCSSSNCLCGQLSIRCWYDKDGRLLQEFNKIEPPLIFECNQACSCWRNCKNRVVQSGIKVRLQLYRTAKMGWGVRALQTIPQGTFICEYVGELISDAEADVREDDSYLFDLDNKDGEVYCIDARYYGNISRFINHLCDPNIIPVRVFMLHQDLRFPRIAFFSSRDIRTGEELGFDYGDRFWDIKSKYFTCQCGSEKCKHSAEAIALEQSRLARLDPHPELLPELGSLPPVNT
T1 sequence (Q9H9B1 2-1298 limits assumed): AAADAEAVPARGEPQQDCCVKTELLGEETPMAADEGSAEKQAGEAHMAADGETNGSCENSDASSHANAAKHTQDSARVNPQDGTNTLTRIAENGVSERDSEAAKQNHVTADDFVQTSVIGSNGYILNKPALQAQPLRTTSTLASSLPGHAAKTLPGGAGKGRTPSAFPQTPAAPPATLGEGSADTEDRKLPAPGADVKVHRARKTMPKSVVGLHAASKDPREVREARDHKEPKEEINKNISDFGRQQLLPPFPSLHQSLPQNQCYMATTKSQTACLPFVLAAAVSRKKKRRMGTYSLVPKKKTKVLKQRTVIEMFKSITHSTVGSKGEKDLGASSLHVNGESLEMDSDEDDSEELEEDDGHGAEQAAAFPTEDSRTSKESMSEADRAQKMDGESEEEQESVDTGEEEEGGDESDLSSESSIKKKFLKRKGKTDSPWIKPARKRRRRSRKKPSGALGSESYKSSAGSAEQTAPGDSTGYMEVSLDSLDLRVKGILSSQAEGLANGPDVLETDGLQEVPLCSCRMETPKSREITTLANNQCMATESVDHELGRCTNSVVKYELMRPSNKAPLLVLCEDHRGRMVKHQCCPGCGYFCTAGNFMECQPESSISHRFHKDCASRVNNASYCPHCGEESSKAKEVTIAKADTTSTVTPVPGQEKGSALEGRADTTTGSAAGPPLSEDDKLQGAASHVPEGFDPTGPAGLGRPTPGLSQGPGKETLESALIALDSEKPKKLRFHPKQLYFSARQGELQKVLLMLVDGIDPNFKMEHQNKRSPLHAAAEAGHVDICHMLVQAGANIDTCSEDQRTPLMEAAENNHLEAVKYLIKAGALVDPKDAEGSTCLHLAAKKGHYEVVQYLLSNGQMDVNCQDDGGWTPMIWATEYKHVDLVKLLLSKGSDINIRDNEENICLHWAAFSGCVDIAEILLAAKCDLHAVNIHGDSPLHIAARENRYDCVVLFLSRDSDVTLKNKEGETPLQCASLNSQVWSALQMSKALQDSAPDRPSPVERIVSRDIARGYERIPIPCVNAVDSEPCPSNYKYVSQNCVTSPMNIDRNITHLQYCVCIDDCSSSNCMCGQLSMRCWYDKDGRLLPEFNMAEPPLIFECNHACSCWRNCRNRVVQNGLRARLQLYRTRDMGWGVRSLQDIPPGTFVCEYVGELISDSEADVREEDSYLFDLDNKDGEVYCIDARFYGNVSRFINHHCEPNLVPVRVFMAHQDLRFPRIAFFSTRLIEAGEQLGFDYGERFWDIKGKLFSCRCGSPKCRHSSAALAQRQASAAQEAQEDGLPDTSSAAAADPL

Relative to UNC0638 UNC Heavy (G9a and GLP): 0.01 log base 2
Relative to UNC0638 UNC Light (G9a and GLP): 0.10 log base 2
Relative to UNC0638 Average (G9a and GLP): 0.06 log base 2
B1: TRIM28 (protein, UniProt Q13263 2-835, looked up)
Transcription intermediary …: AASAAAASAAAASAASGSPGPGEGSAGGEKRSTAPSAAASASASAAASSPAGGGAEALELLEHCGVCRERLRPEREPRLLPCLHSACSACLGPAAPAAANSSGDGGAAGDGTVVDCPVCKQQCFSKDIVENYFMRDSGSKAATDAQDANQCCTSCEDNAPATSYCVECSEPLCETCVEAHQRVKYTKDHTVRSTGPAKSRDGERTVYCNVHKHEPLVLFCESCDTLTCRDCQLNAHKDHQYQFLEDAVRNQRKLLASLVKRLGDKHATLQKSTKEVRSSIRQVSDVQKRVQVDVKMAILQIMKELNKRGRVLVNDAQKVTEGQQERLERQHWTMTKIQKHQEHILRFASWALESDNNTALLLSKKLIYFQLHRALKMIVDPVEPHGEMKFQWDLNAWTKSAEAFGKIVAERPGTNSTGPAPMAPPRAPGPLSKQGSGSSQPMEVQEGYGFGSGDDPYSSAEPHVSGVKRSRSGEGEVSGLMRKVPRVSLERLDLDLTADSQPPVFKVFPGSTTEDYNLIVIERGAAAAATGQPGTAPAGTPGAPPLAGMAIVKEEETEAAIGAPPTATEGPETKPVLMALAEGPGAEGPRLASPSGSTSSGLEVVAPEGTSAPGGGPGTLDDSATICRVCQKPGDLVMCNQCEFCFHLDCHLPALQDVPGEEWSCSLCHVLPDLKEEDGSLSLDGADSTGVVAKLSPANQRKCERVLLALFCHEPCRPLHQLATDSTFSLDQPGGTLDLTLIRARLQEKLSPPYSSPQEFAQDVGRMFKQFNKLTEDKADVQSIIGLQRFFETRMNEAFGDTKFSAVLVEPPPMSLPGAGLSSQELSGGPGDGP
3xMBT/D355N UNC Heavy (3×MBT domain of L3MBTL1): 1.05 log base 2
3xMBT/D355N UNC Light (3×MBT domain of L3MBTL1): 1.28 log base 2

Relative to UNC0638 UNC Heavy (G9a and GLP): 0.03 log base 2
Relative to UNC0638 UNC Light (G9a and GLP): −0.11 log base 2
Relative to UNC0638 Average (G9a and GLP): −0.04 log base 2
B2: NOSIP (protein, UniProt Q9Y314 1-301, looked up)
Nitric oxide …: MTRHGKNCTAGAVYTYHEKKKDTAASGYGTQNIRLSRDAVKDFDCCCLSLQPCHDPVVTPDGYLYEREAILEYILHQKKEIARQMKAYEKQRGTRREEQKELQRAASQDHVRGFLEKESAIVSRPLNPFTAKALSGTSPDDVQPGPSVGPPSKDKDKVLPSFWIPSLTPEAKATKLEKPSRTVTCPMSGKPLRMSDLTPVHFTPLDSSVDRVGLITRSERYVCAVTRDSLSNATPCAVLRPSGAVVTLECVEKLIRKDMVDPVTGDKLTDRDIIVLQRGGTGFAGSGVKLQAEKSRPVMQA
3xMBT/D355N UNC Heavy (3×MBT domain of L3MBTL1): 1.54 log base 2
3xMBT/D355N UNC Light (3×MBT domain of L3MBTL1): 2.28 log base 2

Relative to UNC0638 UNC Heavy (G9a and GLP): −0.83 log base 2
Relative to UNC0638 UNC Light (G9a and GLP): 0.93 log base 2
Relative to UNC0638 Average (G9a and GLP): 0.05 log base 2
B3: TUBA1C (protein, UniProt Q9BQE3 1-449, looked up)
Tubulin alpha-1C chain: MRECISIHVGQAGVQIGNACWELYCLEHGIQPDGQMPSDKTIGGGDDSFNTFFSETGAGKHVPRAVFVDLEPTVIDEVRTGTYRQLFHPEQLITGKEDAANNYARGHYTIGKEIIDLVLDRIRKLADQCTGLQGFLVFHSFGGGTGSGFTSLLMERLSVDYGKKSKLEFSIYPAPQVSTAVVEPYNSILTTHTTLEHSDCAFMVDNEAIYDICRRNLDIERPTYTNLNRLISQIVSSITASLRFDGALNVDLTEFQTNLVPYPRIHFPLATYAPVISAEKAYHEQLTVAEITNACFEPANQMVKCDPRHGKYMACCLLYRGDVVPKDVNAAIATIKTKRTIQFVDWCPTGFKVGINYQPPTVVPGGDLAKVQRAVCMLSNTTAVAEAWARLDHKFDLMYAKRAFVHWYVGEGMEEGEFSEAREDMAALEKDYEEVGADSADGEDEGEEY
3xMBT/D355N UNC Heavy (3×MBT domain of L3MBTL1): 0.42 log base 2
3xMBT/D355N UNC Light (3×MBT domain of L3MBTL1): 1.45 log base 2

Relative to UNC0638 UNC Heavy (G9a and GLP): 0.63 log base 2
Relative to UNC0638 UNC Light (G9a and GLP): −0.50 log base 2
Relative to UNC0638 Average (G9a and GLP): 0.07 log base 2
B4: TK1 (protein, UniProt P04183 2-234, looked up)
Thymidine kinase, cytosolic: SCINLPTVLPGSPSKTRGQIQVILGPMFSGKSTELMRRVRRFQIAQYKCLVIKYAKDTRYSSSFCTHDRNTMEALPACLLRDVAQEALGVAVIGIDEGQFFPDIVEFCEAMANAGKTVIVAALDGTFQRKPFGAILNLVPLAESVVKLTAVCMECFREAAYTKRLGTEKEVEVIGGADKYHSVCRLCYFKKASGQPAGPDNKENCPVPGKPGEAVAARKLFAPQQILQCSPAN
3xMBT/D355N UNC Heavy (3×MBT domain of L3MBTL1): 2.89 log base 2
3xMBT/D355N UNC Light (3×MBT domain of L3MBTL1): 2.36 log base 2

Relative to UNC0638 UNC Heavy (G9a and GLP): −0.12 log base 2
Relative to UNC0638 UNC Light (G9a and GLP): 0.05 log base 2
Relative to UNC0638 Average (G9a and GLP): −0.03 log base 2
B5: CKAP2 (protein, UniProt Q8WWK9 1-683, looked up)
Cytoskeleton-associated …: MSTPAVPQDLQLPPSQRAQSAFKEQRRQKLKEHLLRRKTLFAYKQENEMLSSSRDQRVVTSEDQVQEGTKVLKLKTKMADKENMKRPAESKNNTVVGKHCIPLKPSNELTNSTVVIDTHKPKDSNQTPHLLLTEDDPQSQHMTLSQAFHLKNNSKKKQMTTEKQKQDANMPKKPVLGSYRGQIVQSKINSFRKPLQVKDESSAATKKLSATIPKATKPQPVNTSSVTVKSNRSSNMTATTKFVSTTSQNTQLVRPPIRSHHSNTRDTVKQGISRTSANVTIRKGPHEKELLQSKTALSSVKTSSSQGIIRNKTLSRSIASEVIARPASLSNDKLMEKSEPVDQRRHTAGKAIVDSRSAQPKETSEERKARLSEWKAGKGRVLKRPPNSVVTQHEPAGQNEKPVGSFWTTMAEEDEQRLFTEKVNNTFSECLNLINEGCPKEDILVTLNDLIKNIPDAKKLVKYWICLALIEPITSPIENIIAIYEKAILAGAQPIEEMRHTIVDILTMKSQEKANLGENMEKSCASKEEVKEVSIEDTGVDVDPEKLEMESKLHRNLLFQDCEKEQDNKTKDPTHDVKTPNTETRTSCLIKYNVSTTPYLQSVKKKVQFDGTNSAFKELKFLTPVRRSRRLQEKTSKLPDMLKDHYPCVSSLEQLTELGRETDAFVCRPNAALCRVYYEADTT
3xMBT/D355N UNC Heavy (3×MBT domain of L3MBTL1): −1.81 log base 2
3xMBT/D355N UNC Light (3×MBT domain of L3MBTL1): −1.33 log base 2
